In patent US20240360223A1 (DRAGONFLY THERAPEUTICS, published 2024):
Substitutions are numbered along the chain they refer to. Read-outs that look alike come from different tables or passages of the source.

Key:
[1] = target: T1, human BAFF-R expressed on cells (human, UniProt Q96RJ3 1-184); experiment: flow cytometry, human BAFF-R+ isogenic CHO
T1 construct: Cell surface BAFF-R, endogenous on B cell lines and primary B cells or overexpressed on isogenic CHO cells; also called hBAFF-R; hBAFF-R-CHO
Description: Isogenic cell lines overexpressing human and cynomolgus BAFF-R were developed from CHO cells.

[2] = target: T1, human BAFF-R expressed on cells; experiment: flow cytometry, human BAFF-R CHO cells
Description: Isogenic cell lines overexpressing human and cynomolgus BAFF-R on the backbone of CHO cell line were designed.

[3] = target: T1, human BAFF-R expressed on cells; experiment: flow cytometry, SUDHL-6 cells
[4] = target: T1, human BAFF-R expressed on cells; experiment: flow cytometry, BJAB cells
[5] = target: T1, human BAFF-R expressed on cells; experiment: flow cytometry, Rs4;11 cells
[6] = target: T1, human BAFF-R expressed on cells; experiment: flow cytometry, CHO-hBAFF-R cells
[7] = target: T1, human BAFF-R expressed on cells; experiment: flow cytometry, RL cells
[8] = target: T1, human BAFF-R expressed on cells; experiment: flow cytometry, Raji cells
[9] = target: T2, human NKG2D expressed on cells (human, UniProt P26718 1-216); experiment: flow cytometry on KHYG-1 cells (no CD16), MFI
T2 construct: whole, on cells; also called NKG2D on KHYG-1 cells; NKG2D-positive NK cells and CD8+ T cells
T2 sequence (looked up): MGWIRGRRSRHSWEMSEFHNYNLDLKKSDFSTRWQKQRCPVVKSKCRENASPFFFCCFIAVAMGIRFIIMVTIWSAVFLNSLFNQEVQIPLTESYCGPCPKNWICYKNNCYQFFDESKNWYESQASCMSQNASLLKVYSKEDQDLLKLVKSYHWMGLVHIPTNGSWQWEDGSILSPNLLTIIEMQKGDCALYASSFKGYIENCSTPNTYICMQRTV

[10] = target: T1, human BAFF-R expressed on cells; experiment: flow cytometry, Jeko-1 cells
[11] = target: T1, human BAFF-R expressed on cells; experiment: blocking of BAFF-biotin on hBAFF-R CHO cells
[12] = target: T1, human BAFF-R expressed on cells; experiment: flow cytometry, human BAFF-R CHO cells; remark: listed apart in the source
[13] = target: T1, human BAFF-R expressed on cells; experiment: flow cytometry, human BAFF-R CHO cells; remark: listed apart in the source
[14] = target: T1, human BAFF-R expressed on cells; experiment: flow cytometry, BAFF-R CHO cells; isogenic CHO cells; human and cynomolgus not told apart
[15] = target: T1, human BAFF-R expressed on cells; experiment: blocking of BAFF-biotin on hBAFF-R CHO cells, flow cytometry
Protocol: Briefly, CHO cells expressing human BAFF-R were harvested, washed in cold FACS buffer, and seeded at a density of 100,000 cells per well. Test articles were diluted in FACS buffer, and 50 μL of diluted multispecific binding protein or mAb was added to cells, incubated on ice for 60 minutes, then washed with FACS buffer. […] Cells were incubated with 100 μL of 1:200 streptavidin-PE diluted in FACS buffer and incubated on ice for 30 minutes then washed with FACS buffer. Cells were then incubated in 100 μL of 1:1,000 dilution of live/dead dye in PBS for 15 minutes, then washed with FACS buffer, and fixed. After incubation, cells were washed with FACS buffer and resuspended in FACS buffer for analysis with flow cytometry. Median fluorescent intensity (MFI) of each sample and the secondary-only control was calculated. […] Data were fit to a four-parameter non-linear regression curve using GraphPad Prism.

[16] = target: T1, human BAFF-R expressed on cells; experiment: cell-based or functional assay
[17] = target: T3, cynomolgus monkey BAFF-R expressed on cells (cynomolgus monkey); experiment: flow cytometry, cyno BAFF-R CHO cells
T3 construct: whole, on cells; also called cBAFF-R; cynoBAFF-R

[18] = target: T1, human BAFF-R expressed on cells; experiment: flow cytometry, BAFF-R-CHO cells
[19] = target: T3, cynomolgus monkey BAFF-R expressed on …; experiment: flow cytometry, cyno BAFF-R CHO cells; remark: listed apart in the source

B1: Parental mAb (AB1753) (antibody, V domains shown)
VH: EVQLVQSGGGVVQPGRSLRLSCAASGFTFSSYGMHWVRQAPGKGLEWVAVIWYDASNKYYGDSVKGRFTISRDNSKNTLYLQMNSLRDEDTAVYYCARRFTHLRGQYIEDYGLDVWGQGTTVTVSS
VL: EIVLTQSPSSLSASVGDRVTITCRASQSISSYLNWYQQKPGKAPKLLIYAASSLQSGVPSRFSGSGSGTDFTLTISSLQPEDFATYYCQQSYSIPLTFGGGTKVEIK
notes: also called parental BAFF-R specific antibody
How did the EC50 [1] turn out when B1 was run?
The EC50 was 0.39 nM.

And the “Max FOB” value [1]?
Its value is 123 fold over background.

And the EC50 [2]?
Its EC50 is 0.4 nM.

And the “Max FOB” value [2]?
The value was 57 fold over background.

What about the EC50 [3] of the same binder?
The EC50 was 0.19 nM.

What about the “Max FOB” value [3] of the same binder?
Its value is 13 fold over background.

And the EC50 [4]?
Its EC50 is 0.18 nM.

And the “Max FOB” value [4]?
Its value is 12 fold over background.

What about the EC50 [5] of the same binder?
Its EC50 is 0.06 nM.

And the “Max FOB” value [5]?
Its value is 3 fold over background.

And the EC50 [6]?
The EC50 was 0.39 nM.

What about the “Max FOB” value [6] of the same binder?
Its value is 123 fold over background.

And the EC50 [7]?
The EC50 was 0.14 nM.

And the “Max FOB” value [7]?
Its value is 6 fold over background.

What about the EC50 [8] of the same binder?
The EC50 was 0.1 nM.

Does B1 bind [9]?
Result: no binding (tested: about 700 nM)

And the EC50 [10]?
The EC50 was 0.07 nM.

What about the “Max FOB” value [10] of the same binder?
Its value is 5 fold over background.

B2: AB0369 (bispecific antibody, V domains shown)
VH: B1 VH with G44C, A55G, H102M, Q106L, Y107I, L113M
VL: not shown
notes: also called AB0369-001
Which results are given for B2?
IC50 [11]: > 1000 nM; EC50 [12]: 6.8 nM; EC50 [13]: > 10 nM; EC50 [14]: ~10 nM; IC50 [15]: 488 nM; KHYG-A-CD16Av mediated Cytolysis of Ramos cells EC50 [16]: 0.64 nM; EC50 [17]: > 15 nM; EC50 [18]: > 10 nM; EC50 [19]: 7.11 nM
